According to patent US20210253718A1, “FRIZZLED5 PROTEIN-BINDING AGENTS” (Modmab Therapeutics Corporation, priority 2016, published 2021):

Legend:
[1] = target: T1, FZD2 CRD (Homo sapiens, UniProt Q14332); assay: Flow cytometry of anti-FZD5 Fab binding to CHO cells overexpressing Frizzled CRD
T1 construct: D35-P161; GPI anchor signal (C); expressed in transfected cells; host or cells: CHO cells, lentiviral pLenti-puro
Protocol: (§1) Plasmids: pLCKO lentiviral vector used for knockout (TKO) library construction and expression of individual gRNAs was constructed as described previously (Hart et al., 2015). Briefly, single guide RNA (sgRNA) scaffold was amplified from px330 (Addgene 42230) and cloned into pLKO.TRC005 lentiviral vector (Broad Institute, Cambridge, Mass.) using AgeI/EcoRI restriction sites. BfuAI sites were added at the 5′ end of the sgRNA scaffold for cloning the TKO library or individual gRNA target sequences. Lenti Cas9-2A-BsdR vector used to generate Cas9 stable expression cell lines was constructed as described previously (Hart et al., 2015). Briefly, lentiCRISPR pXPR_001 (Addgene 49535) was modified through removal of the sgRNA scaffold region through NdeI/EcoRI digest and blunt ends generation using Large Klenow Fragment (NEB). 2A-puro was replaced with 2A-BsdR by PCR using the NheI/MluI sites. Each of the 10 human Frizzled cysteine rich domains (CRDs) were cloned into the lentiviral expression plasmid pLenti-puro in the following cassette: FZD_CRD-MYC-GPI.
(§2) Flow cytometry: Primary staining of cells was performed by treatment with 200 nM Frizzled profiler Fab. Alexa Fluor 488 AffiniPure F(ab′)2 was used as the secondary antibody (Jackson ImmunoResearch #109-546-097). c-Myc (9E10) IgG1 (primary antibody, Santa Cruz, lot #D0306) and Alexa Fluor 488 IgG (secondary antibody, Life technologies, lot #1458649) were used as controls. Dead cells were excluded by staining with Fixable Viability Dye eFluor 660 (eBioscience, catalogue number 65-0864). All reagents were used as per manufacturer's instructions. Flow cytometry was performed on a BD FACSCanto II flow cytometer (BD Biosciences), and data were analyzed with FlowJo software (FlowJo, LLC).
(§3) To confirm that the FZD5-WNT7B circuit is not driven simply by expression and rule out the possibility of a disconnect between RNA and protein levels for the Wnt receptors in HPAF-II cells, a panel of recombinant Fabs were generated, alternatively referred to herein as ‘Frizzled profiler’, that can detect and discriminate all but one of the ten Frizzled receptors. […] To characterize the binding specificity of these Fabs on cells, a panel of 10 CHO cell lines was generated, each expressing the CRD domain of a different myc-tagged Frizzled family member anchored at the plasma membrane through a GPI anchor (CHO-myc-FZDGPI). Despite the high sequence identity between Frizzled family members (FIG. 7A, FIG. 7B), selective Fabs were identified for FZD4, FZD5, FZD6 and FZD10 as assessed by immunofluorescence and flow cytometry (FIG. 7D and FIG. 8). […] The FZD8 CRD is most homologous to that of FZD5 (FIG. 7B). These Fabs can be used to discriminate expression of FZD1, FZD2, FZD4, FZD5, FZD6, FZD7, FZD8, FZD9 and FZD10 (FIG. 7D and FIG. 8). The ‘Frizzled profiler’ therefore consists of 10 different Fabs that can be used to discriminate expression of 9 different Frizzled family members. The Frizzled profiler was then used to confirm that HPAF-II cells express FZD1, FZD5, FZD6 and possibly FZD8 (FIG. 7E).
(§4) The binding of anti-FZD5 Fabs to cell surface-expressed Frizzled protein was further determined for each member of the Frizzled family via flow cytometry and immunofluorescence analysis of a panel of 10 CHO cell lines, each ectopically over-expressing the extracellular cysteine-rich domain (CRD) of a different Frizzled protein family member.

[2] = target: T2, FZD8 CRD (Homo sapiens, UniProt Q9H461); assay: as above
T2 construct: K31-D155; GPI anchor signal (C); expressed in transfected cells; host or cells: CHO cells, lentiviral pLenti-puro
T2 sequence (Q9H461 31-155): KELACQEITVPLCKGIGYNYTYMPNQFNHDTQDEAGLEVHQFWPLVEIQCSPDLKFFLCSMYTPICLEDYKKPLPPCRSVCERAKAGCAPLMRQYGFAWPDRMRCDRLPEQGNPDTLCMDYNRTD
Protocol: as §1, §2, §3, §4

[3] = target: T3, FZD7 CRD (Homo sapiens, UniProt O75084); assay: as above
T3 construct: D45-S169; GPI anchor signal (C); expressed in transfected cells; host or cells: CHO cells, lentiviral pLenti-puro
Protocol: as §1, §2, §3, §4

[4] = target: T4, FZD6 CRD (Homo sapiens, UniProt O60353); assay: as above
T4 construct: S20-P146; GPI anchor signal (C); expressed in transfected cells; host or cells: CHO cells, lentiviral pLenti-puro
T4 sequence (O60353 20-146): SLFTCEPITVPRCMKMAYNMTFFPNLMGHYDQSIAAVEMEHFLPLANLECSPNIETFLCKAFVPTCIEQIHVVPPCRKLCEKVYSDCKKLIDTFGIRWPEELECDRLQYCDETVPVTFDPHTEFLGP
Protocol: as §1, §2, §3, §4

[5] = target: T5, FZD3 CRD (Homo sapiens, UniProt Q9NPG1); assay: as above
T5 construct: CRD of FZD1, FZD2, FZD3, FZD4, FZD5, FZD6, FZD7, FZD8, FZD9 or FZD10; GPI anchor signal (C); expressed in transfected cells; host or cells: CHO cells, lentiviral pLenti-puro
T5 sequence (Q9NPG1 23-136 limits assumed): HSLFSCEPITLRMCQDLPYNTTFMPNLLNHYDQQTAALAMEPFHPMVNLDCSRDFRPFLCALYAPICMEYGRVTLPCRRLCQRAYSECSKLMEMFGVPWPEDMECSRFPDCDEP
Protocol: as §1, §2, §3, §4

[6] = target: T6, FZD1 CRD (Homo sapiens, UniProt Q9UP38); assay: as above
T6 construct: D112-P238; GPI anchor signal (C); expressed in transfected cells; host or cells: CHO cells, lentiviral pLenti-puro
Protocol: as §1, §2, §3, §4

[7] = target: T7, FZD4 CRD (Homo sapiens, UniProt Q9ULV1); assay: as above
T7 construct: E42-V167; GPI anchor signal (C); expressed in transfected cells; host or cells: CHO cells, lentiviral pLenti-puro
T7 sequence (Q9ULV1 42-167): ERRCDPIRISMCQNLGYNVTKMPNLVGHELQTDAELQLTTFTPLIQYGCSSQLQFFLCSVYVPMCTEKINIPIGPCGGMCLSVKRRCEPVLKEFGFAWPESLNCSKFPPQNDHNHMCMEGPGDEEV
Protocol: as §1, §2, §3, §4

[8] = test system: PATU8988S cells; assay: Effect of anti-FZD5 Fabs on proliferation of pancreatic cancer cell lines (percent growth inhibition); format: cell-based, human; settings: Fab 2 μg/ml
[9] = test system: ASPC-1 cells; assay: as above; format: cell-based, human; settings: Fab 2 μg/ml

With “Fab-2931: anti-FZD5 Fab with antibody variable region Fv-2931; CDR SEQ ID NOs: 35, 36, 70, 102, 146, 176 (CDR 1 QSVSSA; CDR 2 SAS; CDR 3 QQSSYSLIT; CDR 4 GFNLSYSS; CDR 5 ISPYSGST; CDR 6 ARGSYWYVGGGWWVSGHGGMDY)” the “Median fluorescence, Frizzled CRD overexpressed on CHO cells: FZD2” value [1] was 4.7, the “Median fluorescence, Frizzled CRD overexpressed on CHO cells: FZD8” value [2] was 7.43 and the “Median fluorescence, Frizzled CRD overexpressed on CHO cells: FZD7” value [3] was 9.14. The “Median fluorescence, Frizzled CRD overexpressed on CHO cells: FZD6” value [4] was 2.89, the “Median fluorescence, Frizzled CRD overexpressed on CHO cells: FZD3” value [5] was 3.49 and the “Median fluorescence, Frizzled CRD overexpressed on CHO cells: FZD1” value [6] was 10.27. For the same substance, the “Median fluorescence, Frizzled CRD overexpressed on CHO cells: FZD4” value [7] was 3.65, the “percent growth inhibition, PATU8988s 2 μg/ml” value [8] was −20.00% and the “percent growth inhibition, ASPC-1 2 μg/ml” value [9] was 10.33%.
